Assays:
Format in all cases: cell-based, mouse
[1] = test system: DMP1-responsive promoter (pGL2BS2); experiment: Transactivation of luciferase reporter plasmid under control of a DMP1-responsive promoter in NIH-3T3 fibroblasts; details: Table 4; DMP1 coexpressed with the additive named as label (DMP1 row: no additive); vector without insert set to 1.0
Description: Coexpression of a D-type cyclin with DMP1 overrides the ability of DMP1 to transactivate a luciferase gene under the control of an artificial DMP1-responsive promoter (Table 4), as well as the ability of DMP1 to inhibit cell growth.

wild-type MEFs = experiment: BrdU incorporation / cell cycle arrest in wild-type MEFs; details: retroviral infection
Procedure: (§1) BrdU incorporation and immunofluorescence. Wild-type or ARF-null MEFs (4×10^4 cells) were seeded on gelatin-coated coverslips 16 hours before virus infection. Cells were infected three times with empty vector, or vectors expressing murine DMP1, human c-Myc, human E2F-1, or human Ets1. Cells were labeled 36 hours after virus infection with bromodeoxyuridine (BrdU, Sigma) for 14 hours in complete medium. For pulse labeling, MEFs were treated with 2 μM4-HT for 36 hours and labeled with BrdU for three hours at different intervals throughout the inductive phase. Cells were fixed in ice-cold methanol-acetone (1:1) for 10 min at −20° C. and then were stained with affinity-purified antibodies to DMP1 (AF) [Hirai and Sherr, Mol. Cell. […]
(§2) Based on the above observations, it was determined as to whether introduction of DMP1 would induce synthesis of the endogenous ARF protein in normal diploid fibroblast strains. […] Although the blot was normalized for protein input, the levels of p19^ARF induced by DMP1 were calculated to be 2-fold higher than those induced by Myc, because fewer cells were productively infected with the DMP1 virus in this experiment (see FIG. 15A).

[2] = test system: 281 bp ARF promoter fragment; experiment: Transactivation of ARF promoter-luciferase reporter in NIH-3T3 cells; details: NIH-3T3, 281 bp ARF promoter fragment-luciferase
Procedure: Transactivation assays. NIH-3T3 cells were transfected with 4 μg of pGL2-ARFpro BamHI or its DMP1 binding site mutant, with or without increasing amount of pFLEX-DMP1, pEVRFO-Ets1, pCMV-Ets2, pRcRSV-Elfl, pdEB-Fli1, p(IEB-EWS-Fli1 or pCMV-E2F-1 (89-437), and 4 μg β-actin SEAP control vectors [Inoue and Sherr, Mol. Cell. Biol. 18: 1590-1600 (1998); Inoue et al., J. Biol. Chem. 273:29188-29194 (1998); Davis and Roussel, Gene 171:265-269 (1996); Baily et al., Mol. Cell. Biol. 14:3230-3241 (1994)]. Transfections and normalization of luciferase levels with internal control SEAP levels were performed as described [Inoue and Sherr, Mol. Cell. Biol. 18:1590-1600 (1998)].
Similarly, DMP1 deletion mutants defective in transactivation [Inoue and Sherr, Mol. Cell. […] Mutation of the DMP1 binding site within the ARF promoter [changing CCCGGATGC, (SEQ ID NO:33) to CCCGTCGAC, (SEQ ID NO:42)] also completely abolished transactivation by wild-type DMP1 (FIG. 14C, mutant reporter). Therefore, sequences within the −189 to −181 ARF promoter segment were the only ones responsible for DMP1-mediated transactivation. Although Ets1 could bind to a 23 base pair oligonucleotide containing the DMP1 consensus site (FIG. 14B), several Ets proteins were unable to induce significant reporter gene expression from the more complex 281 base pair ARF promoter (FIG. 14C). […]

ARF-null MEFs = experiment: BrdU incorporation / cell cycle arrest in ARF-null MEFs; details: retroviral infection
Procedure: as §1, §2

Row | Luciferase Activity [1] | Molecule | cell cycle arrest (wild-type MEFs) | ARF promoter reporter gene expression [2] | cell cycle arrest (ARF-null MEFs)
1 | 5.5 | cyclin H: cyclin coexpressed with DMP1 (protein, UniProt Q61458 1-323, looked up) Cyclin-H: MYHSSSQKRHWTFASEEQLARLRADANRKFKCKAVANGKVLPNDPVFLEPHEELTLCKYYEKRLLEFCSVFKPAMPRSVVGTACMYFKRFYLNNSVMEYHPRIIMLTCAFLACKVDEFNVSSPQFVGNLRESPLGQERALEQILEYELLLIQQLNFHLIVHNPYRPFEGFLIDIKTRYPMLENPEILRKTADDFLSRIALTDAYLLYTPSQIALTAILSSASRAGITMESYLSESLMLKENRTCLSQLLDIMKSMRNLVKKYEPPRSDEVAVLKQKLERCHSSDLALNAVTKKRKGYEDDDYVSKKPKQEEEEWTDDDLVDSL |  |  | 
2 |  | Ets1: Ets family transcription factor (protein, UniProt P27577 1-440, looked up) Protein C-ets-1: MKAAVDLKPTLTIIKTEKVDLELFPSPDMECADVPLLTPSSKEMMSQALKATFSGFTKEQQRLGIPKDPRQWTETHVRDWVMWAVNEFSLKGVDFQKFCMSGAALCALGKECFLELAPDFVGDILWEHLEILQKEDVKPYQVNGANPTYPESCYTSDYFISYGIEHAQCVPPSEFSEPSFITESYQTLHPISSEELLSLKYENDYPSVILQDPLQTDTLQTDYFAIKQEVLTPDNMCLGRASRGKLGGQDSFESVESYDSCDRLTQSWSSQSSFNSLQRVPSYDSFDYEDYPAALPNHKPKGTFKDYVRDRADLNKDKPVIPAAALAGYTGSGPIQLWQFLLELLTDKSCQSFISWTGDGWEFKLSDPDEVARRWGKRKNKPKMNYEKLSRGLRYYYDKNIIHKTAGKRYVYRFVCDLQSLLGYTPEELHAMLDVKPDAD | behaved indistinguishably from those infected with the control vector | slightly inhibitory | behaved indistinguishably from those infected with the control vector

— US6673902B2, “Cyclin D binding factor, and uses thereof” (St. Jude Children's Research Hospital, priority 1996, dated 2004)
